Assay results as given in patent US20110091971A1, “Differentiation of Pluripotent Stem Cells” (priority 2008, published 2011).

Tested on: H1 or H9 human embryonic stem cells
Test: Activin A bioassay: differentiation of human embryonic stem cells to definitive endoderm, cell number and SOX17 intensity by high content analysis (96-well, four days);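 on Cell Number average: Raw total cell count per well from high content imaging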;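 on Sox 17 Intensity average: total fluorescence of the cell multiplied by cell area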
Format: cell-based
Conditions: for Sox 17 Intensity % of control: control = R&D Sys Activin A 100 ng/ml on same plate
Method in brief: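 Read-out was cell count and integrated SOX17 immunofluorescence by high-content imaging, with each well divided by the mean of the 100 ng/ml activin A control. Over the four-day culture, test samples were given in DMEM:F12 with 0.5% FCS plus 20 ng/ml Wnt3a for the first two days and in 2% FCS alone for the last two. Cells were H1 or H9 hESC clusters grown on Matrigel.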

[1] = supernatant concentration 10x, assay dilution 1:20, assay plates #007, #009, #010
[2] = supernatant concentration 10x, assay dilution 1:20
[3] = supernatant concentration 50x, assay dilution 1:20, assay plates #008, #009
[4] = supernatant concentration 50x, assay dilution 1:20
[5] = supernatant concentration 1x, assay dilution 1:20
[6] = supernatant concentration 10x, assay dilution 1:40

B1: ACTN27: activin A variant peptide, SEQ ID 28 (protein)
chain: GLECDGKVNLCCKKQLFVSFKDIGWNDWIIAPSGYHANHCDGKCPSHIAGTSGSSLSFHSTVINHYRMRGHSPFANRGACCIPTKLRPMSMLYYDDGQNIIKKDIQNMIVEECGCS
Cell Number average [1]: 6664
Sox 17 Intensity average [1]: 1.39E+07
Sox 17 Intensity % of control [2]: 55.7%
Cell Number average [3]: 6857
Sox 17 Intensity average [3]: 2.82E+07
Sox 17 Intensity % of control [4]: 113.1%

B2: ACTN40: activin A variant peptide, SEQ ID 41 (protein)
chain: GLECDGKVNLCCKKQLFVSFKDIGWNDWIIAPSGYHANHCAGLCPSHIAGTSGSSLSFHSTVINHYRMRGHSPFSNMGSCCVPTKLRPMSMLYYDDGQNIIKKDIQNMIVEECGCS
Cell Number average [1]: 11321
Sox 17 Intensity average [1]: 1.21E+08
Sox 17 Intensity % of control [2]: 85.6%

B3: ACTN5: activin A variant peptide, SEQ ID 6 (protein)
chain: GLECDGKVNYCCKKQNFVSFKDIGWNDWIIAPSGYHANECSGKCPSHIAGTSGSSLSFHSTVINHYRMRGHSPFSNLGACCIPTKLRPMSMLYYDDGQNIIKKDIQNMIVEECGCS
Cell Number average [5]: 1261
Sox 17 Intensity average [5]: 1.111E+07
Sox 17 Intensity % of control [5]: 6.0%
Cell Number average [2]: 1396
Sox 17 Intensity average [2]: 1.031E+07
Sox 17 Intensity % of control [2]: 5.6%
Cell Number average [6]: 1382
Sox 17 Intensity average [6]: 1.311E+07
Sox 17 Intensity % of control [6]: 7.1%

B4: ACTN36: activin A variant peptide, SEQ ID 37 (protein)
chain: GLECDGKVNLCCKKQDFVSFKDIGWNDWIIAPSGYHANRCSGKCPSHIAGTSGSSLSFHSTVINHYRMRGHSPFANMGACCVPTKLRPMSMLYYDDGQNIIKKDIQNMIVEECGCS
Cell Number average [1]: 24664
Sox 17 Intensity average [1]: 2.60E+07
Sox 17 Intensity % of control [2]: 18.4%

B5: ACTN42: activin A variant peptide, SEQ ID 43 (protein)
chain: GLECDGKVNYCCKKQDFVSFKDIGWNDWIIAPSGYHANKCSGKCPSHIAGTSGSSLSFHSTVINHYRMRGHSPFSDMGSCCIPTKLRPMSMLYYDDGQNIIKKDIQNMIVEECGCS
Cell Number average [1]: 9937
Sox 17 Intensity average [1]: 3.45E+06
Sox 17 Intensity % of control [2]: 13.8%
Cell Number average [3]: 7805
Sox 17 Intensity average [3]: 7.53E+06
Sox 17 Intensity % of control [4]: 30.2%

B6: ACTN13: activin A variant peptide, SEQ ID 14 (protein)
chain: GLECDGKVNLCCKKQDFVSFKDIGWNDWIIAPSGYHANKCSGKCPSHIAGTSGSSLSFHSTVINHYRMRGHSPFSDMGSCCIPTKLRPMSMLYYDDGQNIIKKDIQNMIVEECGCS
Cell Number average [1]: 19861
Sox 17 Intensity average [1]: 2.78E+07
Sox 17 Intensity % of control [2]: 19.7%

B7: ACTN15: activin A variant peptide, SEQ ID 16 (protein)
chain: GLECDGKVNLCCKKQDFVSFKDIGWNDWIIAPSGYHANRCSGLCPSHIAGTSGSSLSFHSTVINHYRMRGHSPFSNMGSCCIPTKLRPMSMLYYDDGQNIIKKDIQNMIVEECGCS
Cell Number average [1]: 22700
Sox 17 Intensity average [1]: 2.89E+07
Sox 17 Intensity % of control [2]: 20.5%

B8: ACTN83: activin A variant peptide, SEQ ID 84 (protein)
chain: GLECDGKVNICCKKQSFGRAKDIGWNDWIIAPSGYHGGGCTGECPSHIAGTSGSSLSFHSTVINHYRMRGHSPFANLKSCCSPTKLRPMSMLYYDDGQNIIKKDIQGMKVEECGCT
Cell Number average [1]: 12084
Sox 17 Intensity average [1]: 5.39E+05
Sox 17 Intensity % of control [2]: 2.4%
Cell Number average [3]: 15829
Sox 17 Intensity average [3]: 9.01E+06
Sox 17 Intensity % of control [4]: 16.3%

B9: ACTN72: activin A variant peptide, SEQ ID 73 (protein)
chain: GLECDGKVNICCKKQLFGQAKDIGWNDWIIAPSGYHGGSCTGECPSHIAGTSGSSLSFHSTVINHYRMRGHSPNANLKSCCSPTKLRPMSMLYYDDGQNIIKKDIQNMVVEECGCT
Cell Number average [1]: 14638
Sox 17 Intensity average [1]: 3.44E+06
Sox 17 Intensity % of control [2]: 13.8%
Cell Number average [3]: 16810
Sox 17 Intensity average [3]: 6.51E+06
Sox 17 Intensity % of control [4]: 26.1%

B10: ACTN88: activin A variant peptide, SEQ ID 89 (protein)
chain: GLECDGKVNICCKKQSFGQTKDIGWNDWIIAPSGYHGGGCSGECPSHIAGTSGSSLSFHSTVINHYRMRGHSPWANLKSCCSPTKLRPMSMLYYDDGQNIIKKDIQNMVVEECGCT
Cell Number average [1]: 11583
Sox 17 Intensity average [1]: 6.21E+05
Sox 17 Intensity % of control [2]: 2.8%
Cell Number average [3]: 15317
Sox 17 Intensity average [3]: 2.87E+06
Sox 17 Intensity % of control [4]: 5.2%

B11: ACTN92: activin A variant peptide, SEQ ID 93 (protein)
chain: GLECDGKVNICCKKQSFGQAKDIGWNDWIIAPSGYHGGGCSGECPSHIAGTSGSSLSFHSTVINHYRMRGHSPFANLKSCCSPTKLRPMSMLYYDDGQNIIKKDIQGMKVEECGCT
Cell Number average [1]: 14298
Sox 17 Intensity average [1]: 5.60E+05
Sox 17 Intensity % of control [2]: 2.5%
Cell Number average [3]: 15009
Sox 17 Intensity average [3]: 3.32E+06
Sox 17 Intensity % of control [4]: 6.0%

B12: ACTN74: activin A variant peptide, SEQ ID 75 (protein)
chain: GLECDGKVNICCKKQSFGRAKDIGWNDWIIAPSGYHGGGCTGECPSHIAGTSGSSLSFHSTVINHYRMRGHSPFANLKSCCSPTKLRPMSMLYYDDGQNIIKKDIQGMVVEECGCT
Cell Number average [1]: 15049
Sox 17 Intensity average [1]: 3.30E+06
Sox 17 Intensity % of control [2]: 13.2%
Cell Number average [3]: 16143
Sox 17 Intensity average [3]: 1.03E+07
Sox 17 Intensity % of control [4]: 41.3%

B13: ACTN86: activin A variant peptide, SEQ ID 87 (protein)
chain: GLECDGKVNICCKKQSFGKTKDIGWNDWIIAPSGYHGGGCSGECPSHIAGTSGSSLSFHSTVINHYRMRGHSPWANLKSCCSPTKLRPMSMLYYDDGQNIIKKDIQNMVVEECGCT
Cell Number average [1]: 11821
Sox 17 Intensity average [1]: 7.45E+05
Sox 17 Intensity % of control [2]: 3.4%
Cell Number average [3]: 17034
Sox 17 Intensity average [3]: 2.34E+06
Sox 17 Intensity % of control [4]: 4.2%

B14: ACTN61: activin A variant peptide, SEQ ID 62 (protein)
chain: GLECDGKVNICCKKQLFGQTKDIGWNDWIIAPSGYHGGSCTGECPSHIAGTSGSSLSFHSTVINHYRMRGHSPNANLKSCCSPTKLRPMSMLYYDDGQNIIKKDIQNMKVEECGCT
Cell Number average [1]: 15268
Sox 17 Intensity average [1]: 1.70E+06
Sox 17 Intensity % of control [2]: 6.8%
Cell Number average [3]: 15256
Sox 17 Intensity average [3]: 7.18E+06
Sox 17 Intensity % of control [4]: 28.8%

B15: ACTN60: activin A variant peptide, SEQ ID 61 (protein)
chain: GLECDGKVNICCKKQSFGQTKDIGWNDWIIAPSGYHGGGCSGECPSHIAGTSGSSLSFHSTVINHYRMRGHSPWANLKSCCAPTKLRPMSMLYYDDGQNIIKKDIQNMVVEECGCV
Cell Number average [1]: 8303
Sox 17 Intensity average [1]: 5.90E+05
Sox 17 Intensity % of control [2]: 2.4%
Cell Number average [3]: 10603
Sox 17 Intensity average [3]: 3.73E+06
Sox 17 Intensity % of control [4]: 15.0%

B16: ACTN78: activin A variant peptide, SEQ ID 79 (protein)
chain: GLECDGKVNICCKKQLFGQAKDIGWNDWIIAPSGYHGGGCSGECPSHIAGTSGSSLSFHSTVINHYRMRGHSPVANLKSCCSPTKLRPMSMLYYDDGQNIIKKDIQNMVVEECGCT
Cell Number average [1]: 12585
Sox 17 Intensity average [1]: 1.11E+06
Sox 17 Intensity % of control [2]: 4.4%
Cell Number average [3]: 16301
Sox 17 Intensity average [3]: 5.64E+06
Sox 17 Intensity % of control [4]: 22.6%

B17: ACTN93: activin A variant peptide, SEQ ID 94 (protein)
chain: GLECDGKVNICCKKQSFGQTKDIGWNDWIIAPSGYHGGGCTGECPSHIAGTSGSSLSFHSTVINHYRMRGHSPFANLKSCCSPTKLRPMSMLYYDDGQNIIKKDIQNMKVEECGCT
Cell Number average [1]: 13409
Sox 17 Intensity average [1]: 5.87E+05
Sox 17 Intensity % of control [2]: 2.7%
Cell Number average [3]: 15900
Sox 17 Intensity average [3]: 2.67E+06
Sox 17 Intensity % of control [4]: 4.8%
